# Measured values from patent US7402570 (Johns Hopkins, dated 2008).
# B1: lexA-MDM2 (1-118) (other, not shown: small tags and cut ends)
# chain: MCNTNMSVPTDGAVTTSQIPASEQETLVRPKPLLLKLLKSVGAQKDTYTMKEVLFYLGQYIMTKRLYDEKQQHIVYCSNDLLGDLFGVPSFSVKEHRKIYTMIYRNLVVVNQQESSDS
# notes: Genetically engineered clone, expressed in yeast; also called MDM2 codons 1 to 118 fused to lexA
# Target: T1, human p53 protein, full length (human, UniProt P04637 1-393)
# T1 construct: range 1-393; it is not clear whether that entry is whole p53 or the peptide, so it is not used here
# Assay: yeast two-hybrid, lexA-responsive β-galactosidase reporter; (+) colonies turned blue following 24 hours (strain 4)
# T1 sequence (P04637 whole entry): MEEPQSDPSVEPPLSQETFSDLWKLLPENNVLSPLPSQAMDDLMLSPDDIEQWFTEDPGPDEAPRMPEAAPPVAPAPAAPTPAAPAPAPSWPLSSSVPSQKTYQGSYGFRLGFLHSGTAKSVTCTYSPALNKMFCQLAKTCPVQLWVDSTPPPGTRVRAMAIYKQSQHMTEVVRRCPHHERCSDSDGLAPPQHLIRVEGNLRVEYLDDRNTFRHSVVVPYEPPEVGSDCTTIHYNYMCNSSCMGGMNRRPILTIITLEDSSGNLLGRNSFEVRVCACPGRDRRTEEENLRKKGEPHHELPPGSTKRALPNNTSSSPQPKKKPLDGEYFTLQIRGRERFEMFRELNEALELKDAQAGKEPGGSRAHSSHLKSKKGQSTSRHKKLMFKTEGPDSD
binder,measurement,value
B1,binding result,binds
